Data as given in patent US20190359666A1 (ACADEMIA SINICA, published 2019).

B7: VEGF-B (ligand, UniProt P49765-2 22-188, looked up)
chain: PVSQPDAPGHQRKVVSWIDVYTRATCQPREVVVPLTVELMGTVAKQLVPSCVTVQRCGGCCPDDGLECVPTGQHQVRMQILMIRYPSSQLGEMSLEEHSQCECRPKKKDSAVKPDSPRPLCPRCTQHHQRPDPRTCRCRCRRRSFLRCQGRGLELNPDTCRCRKLRR

How the values were obtained:
[1] = biological target: IGF-2 (UniProt P01344 25-91); test: binding test, fragment as ligand, growth factor in 0.65 M NaCl
[2] = biological target: T1, PDGF AB (UniProt P04085 87-211; P01127 82-190, limits assumed); test: as above
T1 construct: Heterodimer by its name

[3] = biological target: T2, IGF-1 (UniProt P05019 49-118); test: as above
T2 construct: Biotinylated IGF-1 is written as the same molecule; also called biotinylated IGF-1; IGF-1-bio

[4] = biological target: B7; test: as above
[5] = biological target: T3, bFGF (UniProt P09038 143-288, limits assumed); test: as above
T3 construct: also called basic fibroblast growth factor

[6] = biological target: T4, nrgbx (UniProt Q02297-6 2-246, limits assumed); test: as above
T4 construct: also called neuregulin
T4 sequence (looked up): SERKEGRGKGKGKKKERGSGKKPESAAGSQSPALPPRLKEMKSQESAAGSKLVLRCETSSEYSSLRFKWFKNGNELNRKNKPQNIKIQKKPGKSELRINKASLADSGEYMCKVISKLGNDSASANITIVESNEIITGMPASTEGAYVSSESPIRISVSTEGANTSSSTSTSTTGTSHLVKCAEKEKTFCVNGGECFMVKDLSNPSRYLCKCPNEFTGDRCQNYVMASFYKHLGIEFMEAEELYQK

[7] = biological target: T2, IGF-1; test: biotinylated IGF-1 ELISA on Fc-captured chimera, 4 C PBS control (the reference); experiment 3-192
Method: (§1) Plates were coated with goat anti-human Fc antibody, blocked and then incubated with chimera as in the Fc ELISA. Biotinylated IGF-1 (GroPep) or VEGF-Biotin (R&D Systems VEGF biotinylated with sulfo-NHS-LC-biotin as per instructions (Pierce) was added for 2 hours followed by streptavidin-HRP (Jackson Immunoresearch) for 30 minutes. Chromogenic development with tetramethyl benzidine was performed as described above.
(§2) To test the stability of the present chimeras, some purified chimeras (see, Table 4) were incubated with PBS or a conditioned medium from the MCF-7 cell line overnight at 37° C. and PBS overnight at 4° C. The IGF-1 binding and VEGF binding were measured using the biotinylated IGF-1 and VEGF.

[8] = biological target: T2, IGF-1; test: biotinylated IGF-1 ELISA on Fc-captured chimera, after overnight in PBS at 37 C, against the 4 C PBS control; experiment 3-192
Method: as §1, §2

[9] = biological target: T2, IGF-1; test: biotinylated IGF-1 ELISA on Fc-captured chimera, after overnight in MCF-7 conditioned medium at 37 C, against the 4 C PBS control; experiment 3-192
Method: as §1, §2

[10] = biological target: T2, IGF-1; test: biotinylated IGF-1 ELISA on Fc-captured chimera, 4 C PBS control (the reference); experiment 4-81
Method: as §1, §2

[11] = biological target: T2, IGF-1; test: Biacore SPR; experiment 4-79
Method: (§3) Biacore binding was performed at David Myszka's laboratory at the University of Utah or at the Genomic Research Center at Academia Sinica. Surfaces of binding protein chimera were made via chemical immobilization on a CM4 chip using standard amine coupling chemistry. […] Excess surface carboxyl activated sites on all four flow cells was blocked using the doubly positively charged species ethylenediamine. Binding experiments (but not immobilizations) in HBS-P (10 mM HEPES pH 7.4, 150 mM NaCl, 0.05% P20), The HBS-P was supplemented with BSA at 0.2 mg/mL, or HBS-P was supplemented with 500 mM NaCl (650 mM NaCl, final concentration). Analytes were also reconstituted in the corresponding buffer. All experiments were performed at 25° C. 1/150 dilutions of phosphoric acid were used to regenerate IGFBP3-Fc surfaces and a sequence of 3 M MgCl₂ followed by 5 M GuCl was used to regenerate surfaces immobilized with growth factor. Dissociation constants reported below used immobilized binding protein unless noted. Differences between binding constants may be expected between growth factor immobilization and chimera immobilization.

[12] = biological target: T2, IGF-1; test: biotinylated IGF-1 ELISA on Fc-captured chimera, after overnight in MCF-7 conditioned medium at 37 C, against the 4 C PBS control; experiment 4-81
Method: as §1, §2

[13] = biological target: T2, IGF-1; test: biotinylated IGF-1 ELISA on Fc-captured chimera, after overnight in PBS at 37 C, against the 4 C PBS control; experiment 4-81
Method: as §1, §2

[14] = biological target: T2, IGF-1; test: cell-based or functional assay
[15] = biological target: T4, nrgbx; test: cell-based or functional assay
[16] = biological target: T3, bFGF; test: Biacore SPR, immobilised bFGF; experiment 4-79
Method: as §3

[17] = biological target: T5, wild-type IGFBP3 (human, UniProt P17936 28-291); test: summary of the foregoing examples; method not given
T5 construct: also called human IGFBP3

T3 sequence (P09038 143-288 limits assumed): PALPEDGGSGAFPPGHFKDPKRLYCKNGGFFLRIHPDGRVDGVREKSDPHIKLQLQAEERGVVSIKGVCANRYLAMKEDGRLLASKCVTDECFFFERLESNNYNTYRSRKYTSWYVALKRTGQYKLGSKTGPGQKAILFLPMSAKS
T1 sequence (P01127 82-190 limits assumed, chain 2 of 2, other chains not shown): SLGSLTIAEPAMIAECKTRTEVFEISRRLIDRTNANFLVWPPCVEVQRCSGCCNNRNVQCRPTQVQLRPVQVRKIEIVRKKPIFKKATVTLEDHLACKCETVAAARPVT
T2 sequence (P05019 49-118 limits assumed): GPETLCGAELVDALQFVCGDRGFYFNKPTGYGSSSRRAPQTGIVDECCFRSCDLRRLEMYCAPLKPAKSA
Sequence of IGF-2 (P01344 25-91 limits assumed): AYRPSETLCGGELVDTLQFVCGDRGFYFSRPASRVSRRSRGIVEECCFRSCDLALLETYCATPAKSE

B1: 4141 (other)
chain: GASSAGLGPVVRCEPCDARALAQCAPPPAVCAELVREPGCGCCLTCALSEGQPCGIYTERCGSGLRCQPSPDEARPLQALLDGRGLCVNASAVSKGHAKDSQRYKVDYESQSTDTQNFSSESKRETEYVECPPCPAPPVAGPSVFLFPPKPKDQLMISRTPEVTCVVVDVSHEDPEVKFNWYVDGVEVHNAKTKPREEQYNSTYRVVSVLTVLHQDWLNGKEYKCKVSNKGLPSSIEKTISKAKGQPREPQVYTLPPSREEMTKNQVSLTCLVKGFYPSDIAVEWESNGQPENNYKTTPPVLDSDGSFFLYSKLTVDKSRWQQGNVFSCSVMHEGLHNHYTQKSLSLSPGK
notes: Fragment of BP3; also called N-terminus plus partial linker
binding result [1]: binds
binding result [2]: binds
binding result [3]: binds
binding result [4]: binds
binding result [5]: binds

B2: 4382 (other)
chain: GASSAVNASAVSRLRAYLLPAPPAPGNASESEEDRSAGSVESPSVSSTHRVSDPKFHPLHSKIIIIKKGHAKDSQRYKVDYESQSTDTQNFSSESKREVECPPCPAPPVAGPSVFLFPPKPKDQLMISRTPEVTCVVVDVSHEDPEVKFNWYVDGVEVHNAKTKPREEQYNSTYRVVSVLTVLHQDWLNGKEYKCKVSNKGLPSSIEKTISKAKGQPREPQVYTLPPSREEMTKNQVSLTCLVKGFYPSDIAVEWESNGQPENNYKTTPPVLDSDGSFFLYSKLTVDKSRWQQGNVFSCSVMHEGLHNHYTQKSLSLSPGK
notes: Fragment of BP3; also called ligand 4382; linker region alone
binding result [2]: no binding
binding result [4]: no binding
binding result [6]: no binding
binding result [5]: no binding

B3: 4142 (other)
chain: GASSAGLGPVVRCEPCDARALAQCAPPPAVCAELVREPGCGCCLTCALSEGQPCGIYTERCGSGLRCQPSPDEARPLQALLDGRGLCVNASAVSVECPPCPAPPVAGPSVFLFPPKPKDQLMISRTPEVTCVVVDVSHEDPEVKFNWYVDGVEVHNAKTKPREEQYNSTYRVVSVLTVLHQDWLNGKEYKCKVSNKGLPSSIEKTISKAKGQPREPQVYTLPPSREEMTKNQVSLTCLVKGFYPSDIAVEWESNGQPENNYKTTPPVLDSDGSFFLYSKLTVDKSRWQQGNVFSCSVMHEGLHNHYTQKSLSLSPGK
notes: Fragment of BP3; also called ligand 4142; N-terminus only
binding result [1]: binds
binding result [2]: no binding
binding result [3]: binds
binding result [4]: no binding
binding result [6]: no binding
binding result [5]: no binding

B4: IGFBP3-GS16-VEGF-Fc (Fc fusion)
chain: GASSAGLGPVVRCEPCDARALAQCAPPPAVCAELVREPGCGCCLTCALSEGQPCGIYTERCGSGLRCQPSPDEARPLQALLDGRGLCVNASAVSKGHAKDSQRYKVDYESQSTDTQNFSSESKRETEYGPCRREMEDTLNHLKFLNVLSPRGVHIPNCDKKGFYKKKQCRPSKGRKRGFCWCVDKYGQPLPGYTTKGKEDVHCYSMQSKGGGGSGGGGSGGGGSGIYIFISDTGRPFVEMYSEIPEIIHMTEGRELVIPCRVTSPNITVTLKKFPLDTLIPDGKRIIWDSRKGFIISNATYKEIGLLTCEATVNGHLYKTNYLTHRQGYRIYDVVLSPSHGIELSVGEKLVLNCTARTELNVGIDFNWEYPSSKHQHKKLVNRDLKTQSGSEMKKFLSTLTIDGVTRSDQGLYTCAASSGLMTKKNSTFVRVHEKVECPPCPAPPVAGPSVFLFPPKPKDQLMISRTPEVTCVVVDVSHEDPEVKFNWYVDGVEVHNAKTKPREEQYNSTYRVVSVLTVLHQDWLNGKEYKCKVSNKGLPSSIEKTISKAKGQPREPQVYTLPPSREEMTKNQVSLTCLVKGFYPSDIAVEWESNGQPENNYKTTPPVLDSDGSFFLYSKLTVDKSRWQQGNVFSCSVMHEGLHNHYTQKSLSLSPGK
notes: IGFBP3 with linker deletion 1 - GS 16 linker - v1v2 - Fc; dimeric; also called Chimera B; 3-t3-3-GS16-V1V2
IGF-1 binding remaining over controls [7]: 100%
IGF-1 binding remaining over controls [8]: 167%
IGF-1 binding remaining over controls [9]: 82%

B5: IGFBP3-Fc-3 (Fc fusion)
chain: GASSAGLGPVVRCEPCDARALAQCAPPPAVCAELVREPGCGCCLTCALSEGQPCGIYTERCGSGLRCQPSPDEARPLQALLDGRGLCVNASAVSRPAPPAPGNASESEEDRSAGSVESPSVSSTHRVSDPKFHPKGHAKVDYESQSTDTQNFSSESKRETEYGPCRREMEDTLNHLKFLNVLSPRGVHIPNCDKKGFYKKKQCRPSKGRKRGFCWCVDKYGQPLPGYTTKGKEDVHCYSMQSKVECPPCPAPPVAGPSVFLFPPKPKDQLMISRTPEVTCVVVDVSHEDPEVKFNWYVDGVEVHNAKTKPREEQYNSTYRVVSVLTVLHQDWLNGKEYKCKVSNKGLPSSIEKTISKAKGQPREPQVYTLPPSREEMTKNQVSLTCLVKGFYPSDIAVEWESNGQPENNYKTTPPVLDSDGSFFLYSKLTVDKSRWQQGNVFSCSVMHEGLHNHYTQKSLSLSPGK
notes: IGFBP3 with IGFBP3 linker deletion 3, fused to Fc; dimeric; also called 3(del3)3; 3(del3)3Fc
IGF-1 binding remaining over controls [10]: 100%
Kd [11]: 0.371 nM
IGF-1 binding remaining over controls [12]: 49%
IGF-1 binding remaining over controls [13]: 84%
EC50 in inhibiting IGF-1 induced proliferation of hep3B cells [14]: 21 nM
IC50 in inhibiting neuregulin-induced proliferation [15]: 80 nM
Kd [16]: 3.44 nM

B6: Rantes (ligand, UniProt P13501 24-91, looked up)
chain: SPYSSDTTPCCFAYIARPLPRAHIKEYFYTSGKCSNPAVVFVTRKNRQVCANPEKKWVREYINSLEMS
notes: The excerpts show no construct or source
binding result [17]: binds

B7
binding result [17]: binds

B8: IGFBP3-Fc-2 (Fc fusion)
chain: GASSAGLGPVVRCEPCDARALAQCAPPPAVCAELVREPGCGCCLTCALSEGQPCGIYTERCGSGLRCQPSPDEARPLQALLDGRGLCVNASAVSRPAPPAPGNASESEEDRSAGSVESPSVSSTHRVSDPKFHPKGHAKDSQRYKVDYESQSTDTQNFSSESKRETEYGPCRREMEDTLNHLKFLNVLSPRGVHIPNCDKKGFYKKKQCRPSKGRKRGFCWCVDKYGQPLPGYTTKGKEDVHCYSMQSKVECPPCPAPPVAGPSVFLFPPKPKDQLMISRTPEVTCVVVDVSHEDPEVKFNWYVDGVEVHNAKTKPREEQYNSTYRVVSVLTVLHQDWLNGKEYKCKVSNKGLPSSIEKTISKAKGQPREPQVYTLPPSREEMTKNQVSLTCLVKGFYPSDIAVEWESNGQPENNYKTTPPVLDSDGSFFLYSKLTVDKSRWQQGNVFSCSVMHEGLHNHYTQKSLSLSPGK
notes: IGFBP3 with IGFBP3 linker deletion 2, fused to Fc; dimeric; also called 3(del2)3; 3(del2)3Fc
IGF-1 binding remaining over controls [10]: 100%
Kd [11]: 0.32 nM
IGF-1 binding remaining over controls [12]: 43%
IGF-1 binding remaining over controls [13]: 72%
Kd [16]: 4.32 nM
